Test results: paper PMC10394066, “Polymorphic amyloid nanostructures of hormone peptides involved in glucose homeostasis display reversible amyloid formation” (Nature Communications, 2023)
Non-standard residues stand in square brackets, D forms with d. No end group written: not given here. pGlu = O=C1CC[C@@H](C(=O)O)N1

How the values were obtained:
[1] = target: the molecule itself; experiment: FTIR; 6 mM peptide in water, pH adjusted from 7.2 to 4.2; amide I band 1625–1630 cm^−1; bio-ATR cell
[2] = target: the molecule itself; experiment: crystal structure; amyloid-like single crystals grown from peptide solutions (water, water/ACN/TFA, water/EtOH or 0.1 M citrate pH 4.0; pH 2-7; 4-37 °C; conditions of each polymorph in Table 1); data at 100 K, Cu Kα
[3] = target: the molecule itself; experiment: far-UV CD; 0.15–0.20 mM peptide in distilled water, physiological pH and above (above pH 5), stirred 500–600 rpm at 37 °C, measured at 25 °C for up to weeks
[4] = target: the molecule itself; experiment: far-UV CD; 0.15–0.20 mM peptide in distilled water, acidic pH set with HCl/NaOH, stirred 500–600 rpm at 37 °C, measured at 0–168 h at 25 °C; U to β/β’-type spectral shift

B1: APR^GLP1 hexapeptide EFIAWL (aggregation-prone region of glucagon-like peptide 1) (peptide)
peptide: EFIAWL
notes: aggregation-prone hexapeptide segment of human glucagon-like peptide 1 (GLP-1); source: synthetic peptide (flow solid-phase synthesis, Fmoc/tBu; RP-HPLC purified)
[1]
  binding result: binds

B2: APR^GLP2 hexapeptide DFINWL (aggregation-prone region of glucagon-like peptide 2) (peptide)
peptide: DFINWL
notes: aggregation-prone hexapeptide segment of human glucagon-like peptide 2 (GLP-2); free termini (no terminal protection); also called DFINWL (GLP-2); source: synthetic peptide (flow solid-phase synthesis, Fmoc/tBu; RP-HPLC purified)
[2]
  binding result: binds

B3: APR^Tc5b hexapeptide LYIQWL (synthetic exendin-like APR of the de novo designed Tc5b and E19) (peptide)
peptide: LYIQWL
notes: hexapeptide segment of the de novo designed Trp-cage exendin derivatives Tc5b and E19; non-natural, no acidic side chain; also called LYIQWL (Tc5b, E19); source: synthetic peptide (flow solid-phase synthesis, Fmoc/tBu; RP-HPLC purified)
[3]
  binding result: binds

B4: Ac-EFIAWL (N-terminally acetylated APR^GLP1) (peptide)
peptide: Ac-EFIAWL
notes: aggregation-prone hexapeptide segment of human GLP-1, N-terminally acetylated; also called Ac-EFIAWL (GLP-1); source: synthetic peptide
[4]
  binding result: binds

B5: pEFIAWL (APR^GLP1 with N-terminal pyroglutamic acid) (peptide)
peptide: [pGlu]FIAWL
notes: aggregation-prone hexapeptide segment of human GLP-1; residue 1 is pyroglutamic acid; Both EFIAWL and pEFIAWL were present in the crystallization samples; the crystal holds pEFIAWL; also called pEFIAWL (GLP-1); APR^GLP1 (in the crystal); source: formed from synthetic EFIAWL by spontaneous ring closure in the crystallization sample (pH ≈ 2, 37 °C)
[2]
  binding result: binds
